Laboratory results published in patent US20250026792A1, “SELF-ASSEMBLING PEPTIDES WITH HYALURONIC ACID BINDING DOMAINS AND METHODS OF USE THEREOF” (Northwestern University, priority 2022, published 2025).
Blank lines part the entries; values can stand above or below the molecule they belong to. The star is where a group is joined. Biotin = O=C1N[C@H]2[C@H](CS[C@H]2CCCCC(=O)*)N1

Legend:
collagen type I = biological target: T1, collagen type I (Rattus norvegicus, UniProt P02454+P02466); assay: ECM specificity binding test, collagen type I coating; settings: 5.0 mg/ml peptide, FIG. 4
T1 construct: purchased Sigma-Aldrich
Protocol: (§1) Peptides were incubated 24 hours at 37° C. on collagens I-IV, elastin, hyaluronic acid, and Geltrex. Coatings (10 pig/cm^2) were previously dried overnight in milli-Q water. Overall significance was assessed using analysis of variance, with Tukey's multiple comparison post-hoc analysis between ECM groups where n=4.
(§2) Biotinylated peptides were custom synthesized by ABI Scientific, Inc. (Sterling, VA). Uranyl acetate and TEM grids were from Ted Pella, Inc (Redding, CA). Unless specified otherwise, all water used in these experiments was Milli-Q grade. HA (˜1 MDa), collagen types I (rat), II (chicken), III (human), and IV (mouse), elastin (bovine), deuterium oxide (D2O), acetic acid-d4, sodium acetate-d3, 3-(Trimethylsilyl)propionic-2,2,3,3-d6 (DSS-D6) acid sodium salt, and 2,2,2-trifluoroethanol (TFE) and were obtained from Sigma-Aldrich (St. Louis, MO). Streptavidin (Alexa Fluor 488 conjugate) and Geltrex were obtained from Thermo Fisher Scientific Inc. (Waltham, MA). […]
(§3) Hyaluronic acid, collagens I, II, III, and IV, elastin, and Geltrex were coated onto 96-well black plates (medium binding affinity) at 10 μg/cm^2 and were dried in milli-Q water at room temperature. […] The plates were read with a fluorescence microplate reader for fluorescence intensity (Ex 490 nm, Em 525 nm). All data were normalized to the background fluorescence intensity of Streptavidin-488.

[1] = Circular dichroism (CD) of peptides; format: physicochemical; settings: 20 mM Sodium Cacodylate; for Ellipticity ratio (222 nm/208 nm) / Ellipticity 208 nm / Ellipticity 222 nm: 1.25 mg/mL; for Ellipticity 208 nm / Ellipticity 222 nm: CD data given as [θ]M×10^−3; for wavelength Minimum of CD profile: 5.0 mg/mL
collagen type IV = biological target: T2, collagen type IV (Mus musculus, UniProt P02463+P08122); assay: ECM specificity binding test, collagen type IV coating; settings: 5.0 mg/ml peptide, FIG. 4
T2 construct: purchased Sigma-Aldrich
Protocol: as §1, §2, §3

elastin = biological target: T3, elastin (Bos taurus, UniProt P04985); assay: ECM specificity binding test, elastin coating; design: species or system bovine; settings: 5.0 mg/ml peptide, FIG. 4
T3 construct: purchased Sigma-Aldrich
T3 sequence (P04985 27-747): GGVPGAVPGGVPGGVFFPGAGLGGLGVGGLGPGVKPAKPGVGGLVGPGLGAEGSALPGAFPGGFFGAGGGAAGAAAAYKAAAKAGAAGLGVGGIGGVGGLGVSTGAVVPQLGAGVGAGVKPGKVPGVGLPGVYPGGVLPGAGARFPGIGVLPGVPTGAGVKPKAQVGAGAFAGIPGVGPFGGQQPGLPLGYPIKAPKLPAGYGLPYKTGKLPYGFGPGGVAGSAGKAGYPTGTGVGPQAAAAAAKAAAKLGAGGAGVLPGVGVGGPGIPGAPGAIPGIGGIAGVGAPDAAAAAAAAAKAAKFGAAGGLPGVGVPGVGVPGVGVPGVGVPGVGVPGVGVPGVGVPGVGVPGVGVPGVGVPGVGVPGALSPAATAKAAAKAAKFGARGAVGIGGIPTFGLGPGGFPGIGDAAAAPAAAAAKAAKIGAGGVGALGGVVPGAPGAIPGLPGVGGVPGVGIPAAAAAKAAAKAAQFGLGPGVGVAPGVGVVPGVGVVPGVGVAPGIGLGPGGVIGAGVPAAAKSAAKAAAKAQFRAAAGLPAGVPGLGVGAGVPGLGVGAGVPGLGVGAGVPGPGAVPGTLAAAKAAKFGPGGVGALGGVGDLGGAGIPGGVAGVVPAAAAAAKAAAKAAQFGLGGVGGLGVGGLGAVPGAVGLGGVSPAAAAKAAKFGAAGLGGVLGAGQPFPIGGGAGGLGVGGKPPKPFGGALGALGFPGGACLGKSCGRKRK
Protocol: as §1
Biotinylated peptides were custom synthesized by ABI Scientific, Inc. (Sterling, VA). Uranyl acetate and TEM grids were from Ted Pella, Inc (Redding, CA). Unless specified otherwise, all water used in these experiments was Milli-Q grade. HA (˜1 MDa), collagen types I (rat), II (chicken), III (human), and IV (mouse), elastin (bovine), deuterium oxide (D2O), acetic acid-d4, sodium acetate-d3, 3-(Trimethylsilyl)propionic-2,2,3,3-d6 (DSS-D6) acid sodium salt, and 2,2,2-trifluoroethanol (TFE) and were obtained from Sigma-Aldrich (St. Louis, MO). Streptavidin (Alexa Fluor 488 conjugate) and Geltrex were obtained from Thermo Fisher Scientific Inc. (Waltham, MA). Sodium hyaluronate (5 and 60 KDa) was purchased from Lifecore Biomedical LLC (Chaska, MN). In reference to terminology, N and C termini is used to describe the amino terminal (N) and the carboxyl terminal (C) of the peptide. The biotinylated peptides are used in every experiment.
(§4) Hyaluronic acid, collagens I, II, III, and IV, elastin, and Geltrex were coated onto 96-well black plates (medium binding affinity) at 10 μg/cm^2 and were dried in milli-Q water at room temperature. N-termini biotinylated peptides were added to coated plates at 0, 1, 2.5, 5 and 10 mg/ml overnight at 37° C. in phosphate buffered saline (PBS), pH 7.4, after which the plates were washed three times with PBS. Fluorescent streptavidin-488 (4 μg/mL) was added to each well and incubated at 37° C. temperature for 24 hours, then thoroughly washed with PBS. The plates were read with a fluorescence microplate reader for fluorescence intensity (Ex 490 nm, Em 525 nm). All data were normalized to the background fluorescence intensity of Streptavidin-488.

[2] = tested on: extracellular matrix (ECM) components: Collagen type I, II, III and IV, elastin, hyaluronic acid and Geltrex; assay: ECM specificity binding test, whole panel; settings: 5.0 mg/ml peptide, FIG. 4
collagen type IV (mouse) = biological target: T4, collagen type IV (mouse) (mouse, UniProt P02463 28-1669; P08122 26-1707); assay: plate assay: biotinylated peptide on dried ECM coating (10 ug/cm2), streptavidin-488 fluorescence
T4 construct: IV (mouse)'; Coated and dried on plates at 10 ug/cm2; also called collagen IV
T4 sequence (P02463 28-1669, chain 1 of 2): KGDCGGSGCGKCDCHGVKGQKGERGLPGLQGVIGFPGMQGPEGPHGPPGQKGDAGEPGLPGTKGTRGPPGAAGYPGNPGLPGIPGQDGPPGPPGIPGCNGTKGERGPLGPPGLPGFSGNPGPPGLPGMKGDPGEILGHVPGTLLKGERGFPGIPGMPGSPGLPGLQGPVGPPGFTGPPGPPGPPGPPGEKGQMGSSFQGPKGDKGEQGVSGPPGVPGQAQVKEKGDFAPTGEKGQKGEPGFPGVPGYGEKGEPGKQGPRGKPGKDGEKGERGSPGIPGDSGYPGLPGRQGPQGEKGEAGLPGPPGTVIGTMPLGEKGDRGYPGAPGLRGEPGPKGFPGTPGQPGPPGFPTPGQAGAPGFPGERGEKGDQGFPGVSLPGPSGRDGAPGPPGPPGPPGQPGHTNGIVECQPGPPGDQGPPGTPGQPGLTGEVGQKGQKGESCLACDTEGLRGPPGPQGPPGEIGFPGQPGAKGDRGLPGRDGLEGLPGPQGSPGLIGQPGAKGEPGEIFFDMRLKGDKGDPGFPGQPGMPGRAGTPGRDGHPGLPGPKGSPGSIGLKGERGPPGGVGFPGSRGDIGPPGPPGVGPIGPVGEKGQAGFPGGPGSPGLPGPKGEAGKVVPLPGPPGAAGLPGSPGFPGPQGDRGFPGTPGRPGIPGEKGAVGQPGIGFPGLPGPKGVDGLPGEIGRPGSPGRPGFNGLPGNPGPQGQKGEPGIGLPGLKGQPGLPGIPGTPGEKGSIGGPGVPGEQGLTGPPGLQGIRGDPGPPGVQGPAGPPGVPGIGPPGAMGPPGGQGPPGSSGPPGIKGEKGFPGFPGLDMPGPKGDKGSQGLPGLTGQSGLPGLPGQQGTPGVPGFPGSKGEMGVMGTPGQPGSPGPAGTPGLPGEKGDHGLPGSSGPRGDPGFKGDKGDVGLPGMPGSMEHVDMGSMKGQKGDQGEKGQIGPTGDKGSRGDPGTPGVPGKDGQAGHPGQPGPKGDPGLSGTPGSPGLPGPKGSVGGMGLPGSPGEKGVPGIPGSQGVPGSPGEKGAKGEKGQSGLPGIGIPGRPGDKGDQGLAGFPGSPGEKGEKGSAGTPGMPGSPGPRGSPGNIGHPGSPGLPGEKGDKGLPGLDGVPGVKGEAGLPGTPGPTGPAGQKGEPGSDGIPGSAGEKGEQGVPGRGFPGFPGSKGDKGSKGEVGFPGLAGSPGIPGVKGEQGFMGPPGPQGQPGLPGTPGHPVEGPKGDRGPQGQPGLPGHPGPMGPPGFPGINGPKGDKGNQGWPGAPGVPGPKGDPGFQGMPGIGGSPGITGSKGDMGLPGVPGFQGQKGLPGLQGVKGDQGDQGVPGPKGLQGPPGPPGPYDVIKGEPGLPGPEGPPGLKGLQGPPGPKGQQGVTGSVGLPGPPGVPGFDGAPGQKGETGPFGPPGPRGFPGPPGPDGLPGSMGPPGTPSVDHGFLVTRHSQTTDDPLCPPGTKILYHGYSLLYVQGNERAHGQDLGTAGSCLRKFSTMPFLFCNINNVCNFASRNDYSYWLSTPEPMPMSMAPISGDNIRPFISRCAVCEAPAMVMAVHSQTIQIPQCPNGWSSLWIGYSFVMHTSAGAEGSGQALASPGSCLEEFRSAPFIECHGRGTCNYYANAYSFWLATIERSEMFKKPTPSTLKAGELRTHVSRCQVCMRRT
T4 sequence (P08122 26-1707, chain 2 of 2): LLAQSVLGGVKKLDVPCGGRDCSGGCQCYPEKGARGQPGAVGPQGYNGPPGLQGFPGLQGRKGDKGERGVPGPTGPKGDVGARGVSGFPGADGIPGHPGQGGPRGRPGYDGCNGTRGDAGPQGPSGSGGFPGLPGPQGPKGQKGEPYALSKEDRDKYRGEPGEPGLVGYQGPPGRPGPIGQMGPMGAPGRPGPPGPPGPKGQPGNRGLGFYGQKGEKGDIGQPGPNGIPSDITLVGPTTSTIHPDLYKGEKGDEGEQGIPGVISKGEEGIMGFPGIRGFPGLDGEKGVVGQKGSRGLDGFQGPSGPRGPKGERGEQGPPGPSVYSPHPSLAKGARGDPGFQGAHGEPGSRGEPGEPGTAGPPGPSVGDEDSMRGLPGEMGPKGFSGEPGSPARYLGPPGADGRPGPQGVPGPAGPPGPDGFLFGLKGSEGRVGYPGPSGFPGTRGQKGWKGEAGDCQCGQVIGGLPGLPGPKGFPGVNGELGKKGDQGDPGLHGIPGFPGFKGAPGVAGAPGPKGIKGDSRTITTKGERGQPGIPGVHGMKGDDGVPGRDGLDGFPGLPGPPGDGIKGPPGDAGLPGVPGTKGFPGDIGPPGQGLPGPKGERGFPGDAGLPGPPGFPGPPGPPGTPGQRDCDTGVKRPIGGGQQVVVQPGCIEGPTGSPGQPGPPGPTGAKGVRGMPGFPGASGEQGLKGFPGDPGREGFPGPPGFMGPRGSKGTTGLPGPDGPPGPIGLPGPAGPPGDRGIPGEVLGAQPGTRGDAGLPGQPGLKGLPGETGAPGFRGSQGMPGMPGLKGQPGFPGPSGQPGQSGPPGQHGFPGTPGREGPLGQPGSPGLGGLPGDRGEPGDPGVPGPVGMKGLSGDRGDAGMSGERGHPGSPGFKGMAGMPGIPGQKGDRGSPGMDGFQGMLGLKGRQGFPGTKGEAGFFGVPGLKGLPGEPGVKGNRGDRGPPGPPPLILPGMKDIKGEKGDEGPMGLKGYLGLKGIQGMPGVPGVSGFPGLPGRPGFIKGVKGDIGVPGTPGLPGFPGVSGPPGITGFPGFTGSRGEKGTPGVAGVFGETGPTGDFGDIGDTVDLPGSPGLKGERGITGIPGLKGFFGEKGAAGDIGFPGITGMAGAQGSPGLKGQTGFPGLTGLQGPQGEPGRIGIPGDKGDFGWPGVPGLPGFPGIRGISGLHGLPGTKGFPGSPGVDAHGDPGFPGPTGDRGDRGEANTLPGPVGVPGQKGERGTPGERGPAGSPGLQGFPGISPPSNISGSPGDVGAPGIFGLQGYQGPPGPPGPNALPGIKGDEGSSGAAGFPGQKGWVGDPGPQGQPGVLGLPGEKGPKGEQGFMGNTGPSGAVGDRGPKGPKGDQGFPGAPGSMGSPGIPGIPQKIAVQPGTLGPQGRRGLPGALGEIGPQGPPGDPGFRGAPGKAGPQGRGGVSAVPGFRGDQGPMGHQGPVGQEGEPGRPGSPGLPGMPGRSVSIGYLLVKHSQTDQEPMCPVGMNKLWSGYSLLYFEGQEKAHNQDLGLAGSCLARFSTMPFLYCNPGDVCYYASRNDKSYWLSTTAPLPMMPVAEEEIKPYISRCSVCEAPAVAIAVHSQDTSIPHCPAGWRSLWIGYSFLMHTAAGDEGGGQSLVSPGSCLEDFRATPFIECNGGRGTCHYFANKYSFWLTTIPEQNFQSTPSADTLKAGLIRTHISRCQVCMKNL
Protocol: as §1, with “pig/cm²)” for “pig/cm^2)”
as §4, with “N-termini” for “Hyaluronic acid, collagens I, II, III, and IV, elastin, and Geltrex were coated onto 96-well black plates (medium binding affinity) at 10 μg/cm^2 and were dried in milli-Q water at room temperature. N-termini”

[3] = biological target: T5, collagen type III (human) (human, UniProt P02461 154-1221); assay: as above
T5 construct: III (human)'; Coated and dried on plates at 10 ug/cm2; also called collagen III
T5 sequence (looked up): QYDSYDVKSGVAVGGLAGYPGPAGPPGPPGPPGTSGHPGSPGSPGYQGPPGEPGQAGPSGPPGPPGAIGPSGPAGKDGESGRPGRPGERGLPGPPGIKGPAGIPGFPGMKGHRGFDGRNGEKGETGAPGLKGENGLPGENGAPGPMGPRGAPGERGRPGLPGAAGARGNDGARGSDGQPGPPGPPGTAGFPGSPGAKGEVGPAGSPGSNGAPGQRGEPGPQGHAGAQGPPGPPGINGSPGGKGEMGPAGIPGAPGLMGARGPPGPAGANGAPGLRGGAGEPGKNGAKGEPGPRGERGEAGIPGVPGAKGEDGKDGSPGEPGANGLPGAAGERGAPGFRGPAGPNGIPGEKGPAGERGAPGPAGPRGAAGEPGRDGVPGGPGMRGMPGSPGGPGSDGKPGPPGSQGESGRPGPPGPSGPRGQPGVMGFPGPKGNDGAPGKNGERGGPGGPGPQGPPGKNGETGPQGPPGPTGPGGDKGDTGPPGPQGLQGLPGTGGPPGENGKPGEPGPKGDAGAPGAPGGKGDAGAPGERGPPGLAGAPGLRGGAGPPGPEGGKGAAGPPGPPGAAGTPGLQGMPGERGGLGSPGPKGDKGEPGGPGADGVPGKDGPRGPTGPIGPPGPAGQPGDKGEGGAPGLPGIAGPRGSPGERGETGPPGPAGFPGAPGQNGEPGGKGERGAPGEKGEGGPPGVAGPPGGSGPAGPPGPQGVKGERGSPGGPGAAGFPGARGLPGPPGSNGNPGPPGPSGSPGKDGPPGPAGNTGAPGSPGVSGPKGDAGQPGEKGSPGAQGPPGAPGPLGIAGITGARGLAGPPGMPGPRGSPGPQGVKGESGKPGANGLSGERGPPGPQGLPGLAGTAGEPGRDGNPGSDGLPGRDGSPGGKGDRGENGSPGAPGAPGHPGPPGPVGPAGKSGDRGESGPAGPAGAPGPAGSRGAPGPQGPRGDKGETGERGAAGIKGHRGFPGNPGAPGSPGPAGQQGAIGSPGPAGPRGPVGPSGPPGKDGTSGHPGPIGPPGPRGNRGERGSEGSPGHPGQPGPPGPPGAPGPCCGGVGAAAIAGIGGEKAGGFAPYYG
Protocol: as §1, with “pig/cm²)” for “pig/cm^2)”
as §4, with “N-termini” for “Hyaluronic acid, collagens I, II, III, and IV, elastin, and Geltrex were coated onto 96-well black plates (medium binding affinity) at 10 μg/cm^2 and were dried in milli-Q water at room temperature. N-termini”

collagen type I (rat) = biological target: T6, collagen type I (rat) (rat, UniProt P02454 152-1207; P02466 86-1125); assay: as above
T6 construct: Coated and dried on 96-well plates at 10 ug/cm2; also called collagen I
Protocol: as §1, with “pig/cm²)” for “pig/cm^2)”
as §4, with “N-termini” for “Hyaluronic acid, collagens I, II, III, and IV, elastin, and Geltrex were coated onto 96-well black plates (medium binding affinity) at 10 μg/cm^2 and were dried in milli-Q water at room temperature. N-termini”

elastin (bovine) = biological target: T7, elastin (bovine) (bovine, UniProt P04985 27-747, limits assumed); assay: as above
T7 construct: Coated and dried on plates at 10 ug/cm2
T7 sequence (looked up): T3 sequence (P04985 27-747)
Protocol: as §1, with “pig/cm²)” for “pig/cm^2)”
as §4, with “N-termini” for “Hyaluronic acid, collagens I, II, III, and IV, elastin, and Geltrex were coated onto 96-well black plates (medium binding affinity) at 10 μg/cm^2 and were dried in milli-Q water at room temperature. N-termini”

binding to collagen type I (collagen type I): predominantly | binding to collagen type IV (collagen type IV): predominantly | binding to elastin (elastin): predominantly | binding to the ECMs (for 17x-3: the ECMs other than hyaluronic acid) [2]: moderate binding
Molecule: KTKATVKIKNKQKSVNALKQKIVLLSK [Peptide 7c, 17x-3 variant]
Ellipticity ratio (222 nm/208 nm) [1]: 0.46 | Ellipticity 208 nm [1]: −131 | Ellipticity 222 nm [1]: −60.9 | wavelength Minimum of CD profile [1]: 225 nm | Ellipticity ratio (222 nm/208 nm) ([1]; 20% TFE): 0.89 | Ellipticity 208 nm ([1]; 20% TFE): −290 | Ellipticity 222 nm ([1]; 20% TFE): −259 | wavelength Minimum of CD profile ([1]; 20% TFE): 224 nm

binding result (collagen type IV (mouse)): no binding (tested: 5.0 mg/ml) | binding result [3]: no binding (tested: 5.0 mg/ml) | binding result (collagen type I (rat)): no binding (tested: 5.0 mg/ml) | binding result (elastin (bovine)): no binding (tested: 5.0 mg/ml)
B1: Peptide 17x-3 (peptide)
peptide: Biotin-KTKATVLIKNKQKSKNALKQKIVLLSK-OH
SMILES: CC[C@H](C)[C@H](NC(=O)[C@H](CC(C)C)NC(=O)[C@@H](NC(=O)[C@@H](NC(=O)[C@H](C)NC(=O)[C@H](CCCCN)NC(=O)[C@@H](NC(=O)[C@H](CCCCN)NC(=O)CCCC[C@@H]1SC[C@@H]2NC(=O)N[C@@H]21)[C@@H](C)O)[C@@H](C)O)C(C)C)C(=O)N[C@@H](CCCCN)C(=O)N[C@@H](CC(N)=O)C(=O)N[C@@H](CCCCN)C(=O)N[C@@H](CCC(N)=O)C(=O)N[C@@H](CCCCN)C(=O)N[C@@H](CO)C(=O)N[C@@H](CCCCN)C(=O)N[C@@H](CC(N)=O)C(=O)N[C@@H](C)C(=O)N[C@@H](CC(C)C)C(=O)N[C@@H](CCCCN)C(=O)N[C@@H](CCC(N)=O)C(=O)N[C@@H](CCCCN)C(=O)N[C@H](C(=O)N[C@H](C(=O)N[C@@H](CC(C)C)C(=O)N[C@@H](CC(C)C)C(=O)N[C@@H](CO)C(=O)N[C@@H](CCCCN)C(=O)O)C(C)C)[C@@H](C)CC
notes: De novo designed 27-residue peptide, custom synthesized; the biotinylated peptides are used in every experiment; Self-assembles at higher concentrations

binding result (collagen type IV (mouse)): no binding (tested: 5.0 mg/ml) | binding result [3]: no binding (tested: 5.0 mg/ml) | binding result (collagen type I (rat)): no binding (tested: 5.0 mg/ml) | binding result (elastin (bovine)): no binding (tested: 5.0 mg/ml)
B2: Peptide BHP3 (peptide)
peptide: Biotin-TQLRNKYTFLARARNALAVRTKQNIKS-OH
SMILES: CC[C@H](C)[C@H](NC(=O)[C@H](CC(N)=O)NC(=O)[C@H](CCC(N)=O)NC(=O)[C@H](CCCCN)NC(=O)[C@@H](NC(=O)[C@H](CCCNC(=N)N)NC(=O)[C@@H](NC(=O)[C@H](C)NC(=O)[C@H](CC(C)C)NC(=O)[C@H](C)NC(=O)[C@H](CC(N)=O)NC(=O)[C@H](CCCNC(=N)N)NC(=O)[C@H](C)NC(=O)[C@H](CCCNC(=N)N)NC(=O)[C@H](C)NC(=O)[C@H](CC(C)C)NC(=O)[C@H](Cc1ccccc1)NC(=O)[C@@H](NC(=O)[C@H](Cc1ccc(O)cc1)NC(=O)[C@H](CCCCN)NC(=O)[C@H](CC(N)=O)NC(=O)[C@H](CCCNC(=N)N)NC(=O)[C@H](CC(C)C)NC(=O)[C@H](CCC(N)=O)NC(=O)[C@@H](NC(=O)CCCC[C@@H]1SC[C@@H]2NC(=O)N[C@@H]21)[C@@H](C)O)[C@@H](C)O)C(C)C)[C@@H](C)O)C(=O)N[C@@H](CCCCN)C(=O)N[C@@H](CO)C(=O)O
notes: Designed from the 42 residue peptide BH-P; biotinylated synthetic peptide
